This note sets out measurements from the supplement of paper PMC12042874.

± gives the uncertainty stated by the source.

The series in a line: amyloid nucleation score (Sup35N fusion, yeast selection) (log enrichment); library NNK3; higher = more nucleation; inactive = no reads after selection. The procedure, abridged: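 Yeast lacking psi expressed peptides of 20 random codons fused to Sup35N, received 100 μM copper sulfate for 24 hours, and were then grown for 7 days at 30°C on medium lacking adenine and uracil. Illumina sequencing of input and output plasmid inserts provided the reads. Nucleation scores are DiMSum log enrichments of output over input, centred on the mode of non-aggregating sequences. Any sequence with under 100 input reads was excluded.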
As for CWRVCGARYLWA, the amyloid nucleation score entry was “inactive”.
In the case of CWTTINVSGCPNVGGGTVLQ it was 0.9 ± 0.17; in that of CYCLLGVRLHVWIS, “inactive”; in that of CYGFSK, “inactive”.
In the case of CYLCVAAGWSMATPLRGGLA it was “inactive”.
For the substance CYPTSFGCFFVFFWYYVYCG, the amyloid nucleation score entry was “inactive”.
In the case of CYRCVCFLLCGFVQSDCYDD it was “inactive”; in that of CYVLVMKIPSHFKGTFMWHI, “inactive”; in that of CYVNYWESDMLRTAVPNCTF, “inactive”.
With DAFRSSYWIICMTEAHLYKF, the amyloid nucleation score result was “inactive”.
Regarding DAGYDVVLGSMAMVSVGTCL, the amyloid nucleation score result was “inactive”.
Take DATRSCLWMYAIVYNACIGH: the amyloid nucleation score result was “inactive”.
With DAYNVYMMSSRPAHYQGHYL, the amyloid nucleation score entry is “inactive”.
On to DCAYMCNVYFLVLGSAKLFI, for which the amyloid nucleation score amounted to 1.27 ± 0.17.
DCFMGPLVSNCGFYECRLSV: the amyloid nucleation score entry is “inactive”.
The result for DCHLPKIKYFAITYFCFFRR reads “inactive”; that for DCRAIVLRL, “inactive”.
In the case of DCVNWTWHTTDNLVVTYSYN it was “inactive”.
In the case of DDDRGGSTMTATHRRRMWHL it was “inactive”; in that of DDECELNMRYNGREYQGTDG, “inactive”.
With DDHLGKVGSGFRIGICTLQN, the amyloid nucleation score result is “inactive”.
The result for DDLRYRNE reads “inactive”; that for DDPQVGLNFAQSYALPEYFA, “inactive”.
The result for DDSNCKRKDRVVSVRMMDLT reads “inactive”; that for DEANRYPRYLYILERLAYRK, “inactive”.
Substance DEFVCLEVDNLCMVCSEKM registered an amyloid nucleation score of -0.067 ± 0.73.
The result for DEIPCDVRGLMPTRVSTLNL reads “inactive”.
In the case of DENVALFFLF it was “inactive”; in that of DFAVGLLVHWHNPHYNTELQ, 1.25 ± 0.13.
In the case of DFGFYWSSVGHAGLETKLYP it was “inactive”.
In the case of DFHIKERG, the amyloid nucleation score result is “inactive”.
The result for DFISERHYHRPAGPA reads “inactive”; that for DFVDARFWQIFGFSNAEQGL, “inactive”.
In the case of DFVRVEMNYLDENDGGCYL it was “inactive”.
The result for DGKFRSNWSYGVLWMLVFLY reads “inactive”; that for DGMTMFLSYN, -0.208 ± 1.1; that for DGSIGRGVDRRLTKSSQPAL, “inactive”.
With DGTMANRIVVF, the amyloid nucleation score entry was “inactive”.
The result for DGVLSVGSLCNDRFVLEMYG reads -0.432 ± 1; that for DHKFGNMLAFESRLVLYQIK, “inactive”.
In the case of DHQLSGGDGVGSMYSTEGKL it was “inactive”; in that of DHVAG, “inactive”; in that of DIIVKQLPKRYGPTMSIRNM, -0.057 ± 0.58.
The result for DILFTSIS reads 0.257 ± 0.41; that for DILGVCLSMNYWVI, “inactive”.
For DILIREFDYLTSTHLDDKIR, the amyloid nucleation score result is “inactive”.
In the case of DIVGHIKSLMFLVLEDTSSP it was “inactive”.
In the case of DKDMNEQVS it was “inactive”; in that of DKFLFLCMG, “inactive”; in that of DKGQRVNSSGRVCNMNMGYW, “inactive”.
The result for DKRNSLGCGLNYGFKADDGW reads “inactive”; that for DLAINGSAAQTVVLRAERSY, “inactive”; that for DLDCGTSDMLCCRLVCC, “inactive”.
Take DLFKTVPYRWGFRYHIGIYM: the amyloid nucleation score result is “inactive”.
The result for DLGLERLAFS reads “inactive”; that for DLGLNYFESSRDPDGSLLYL, “inactive”; that for DLHMIATMGECMHCEMHL, “inactive”.
The result for DLIRQRAETPKMVISWR reads “inactive”; that for DLRALPKVFLMLDKYSIMSG, “inactive”.
In the case of DLSIRKFHGGSMDSLNMEYM it was “inactive”.
Take DLSKTGTSNNLLFTERISDI: the amyloid nucleation score result is “inactive”.
In the case of DMCEGYVNYCRMHRAMRHDD it was “inactive”; in that of DMIINILRSDYQWWSAN, “inactive”; in that of DNCLNCNRCKCIYKDFWLSA, “inactive”.
In the case of DNICIYWALDGIYECSRHSR it was “inactive”; in that of DNLQVTRCYLADWMSSVT, “inactive”; in that of DNRSL, -0.501 ± 0.66.
Regarding DNTQLSVCWSLSPDTVWKLG, the amyloid nucleation score result is “inactive”.
In the case of DPFVRDIWQREYQWES it was “inactive”; in that of DPHCQGFVWGSCMDVWYLSL, 2.7 ± 0.062; in that of DPINNYSLFFKLCLELHFFA, “inactive”.
As to DQGNPSNSSLDLPLGGSFGE, the amyloid nucleation score result is “inactive”.
In the case of DQQCDDVWRRWDGYGRRKKR it was “inactive”; in that of DREST, “inactive”.
In the case of DRFSYFAIFPWYRMCYGMLE it was “inactive”.
Turning to DRGRMCMNAFPFLCWIWFHG, the amyloid nucleation score entry was “inactive”.
DRQRWSRLCAGQSLYNCGKC: the amyloid nucleation score entry was “inactive”.
Take DRSIEVDAYSCAVGVYQGPV: the amyloid nucleation score entry was “inactive”.
In the case of DRTHDSSDSCGCCNNL it was “inactive”; in that of DRVKACARFGRW, “inactive”; in that of DRVSFSITY, “inactive”.
In the case of DSCKPCQKPTAIHVYMVEFP it was “inactive”; in that of DSCVPIYVDTYGGDLDVNGG, “inactive”.
The result for DSFAGVRLGVHASNILIHGQ reads “inactive”; that for DSGLFKYSYGLWEKLLFYRM, “inactive”.
Consider DSICYHAFYMEEGGS, for which the amyloid nucleation score entry is “inactive”.
Turning to DSKVLSFSWAMFMLIM, the amyloid nucleation score entry was “inactive”.
Consider DSLLDGYSHWAKWGSTRCVR, for which the amyloid nucleation score result was “inactive”.
The result for DSSFLATFFILVTGCCLLVD reads “inactive”; that for DSSLYKDQYRVRSSGQFKRA, “inactive”.
In turn, DSSSWSHL displayed an amyloid nucleation score of -0.291 ± 1.4.
The result for DSVVRTSQMSVGYMCVRAEF reads “inactive”; that for DSWTAACAHSR, “inactive”; that for DSYIVYDKQDPS, “inactive”.
For DTTFMQYVAIYVLVSKLFIE, the amyloid nucleation score entry is “inactive”.
The result for DVALCKYFGLNTIVNSFLAM reads 1.42 ± 0.081; that for DVCRTQSFGVAKTVIFCFLF, “inactive”; that for DVMKICMKLSLHICTVHISS, “inactive”.
In the case of DVMSILLTNVMLSKSALELS it was “inactive”; in that of DVNCALYGKGLDVCRI, “inactive”; in that of DVNFWSLYKFCTRVDFGLSY, “inactive”.
In the case of DVQCGVIMRGLDKYFDLNSA it was “inactive”; in that of DWATFNLIKAVYLRRCSCGL, “inactive”.
With DYGLHDRTYTSIYRVA, the amyloid nucleation score entry was “inactive”.
DYKMVRYWNLE: the amyloid nucleation score entry is “inactive”.
Take DYLLWESKGLVWKCMMTCCG: the amyloid nucleation score result is “inactive”.
As to DYLVFFRPLFNSIDSHWIRS, the amyloid nucleation score entry is “inactive”.
In the case of DYSFYTFPESAVLCTCSSYG it was -0.682 ± 1.1; in that of DYTLDANFEGCHGQLTYMND, “inactive”.
In the case of EAMPHLARGFVVFMCFFRSG it was “inactive”.
For the substance EASLSGGYTEYVGDFMRLVT, the amyloid nucleation score entry was “inactive”.
In the case of EAVYLSLYKECLCLVRVS it was “inactive”.
The result for EAWIIMSRVGI reads “inactive”.
ECFEVEQGILDAHSNCWGNI gave an amyloid nucleation score of 0.778 ± 0.2.
The result for ECLLPKIAMHVKRMVPQFGT reads “inactive”; that for ECRYIPLYREFTRRVSMSGL, “inactive”; that for ECSVSMCEKGITYRSVVERG, “inactive”.
The result for ECYIVWFLRLCSSGVYVYLR reads “inactive”.
EDERNSMCTKPIRDHRLSWM: the amyloid nucleation score entry is “inactive”.
The result for EDGCRNVRLFTMVRSLMYK reads “inactive”; that for EDLSVNNSAYVFPSLE, “inactive”.
In the case of EDQLL it was -0.077 ± 0.54.
In the case of EDYRVGW, the amyloid nucleation score result is “inactive”.
The result for EEVMMRAINQEAPCEPQLRV reads “inactive”; that for EEVSVA, “inactive”; that for EFALTIWCLGAALCIIKSLS, “inactive”.
In the case of EFGFVNGNRAGWGYFQRRAL it was -0.55 ± 2.4.
Turning to EFGVVVNEFYGDVY, the amyloid nucleation score result was “inactive”.
